Experimental data reported in publication PMC3075949.

Legend:
[1] = target: Rh gH/gL-YFPC (rhesus lymphocryptovirus (Rh-LCV)); assay: split reporter
[2] = target: EBV gH/gL-YFPC (Epstein-Barr virus (EBV)) (UniProt P03231); assay: split reporter

Substance	% YFP cells of cells stained for gB and gH/gL [1] [%]	% YFP cells of cells stained for gB and gH/gL [2] [%]
EBV/Rh (628-807) gB-YFPN (from UniProt P03188 22-622; P03188 801-857)	59	–
EBV/Rh (456-628) gB-YFPN (from UniProt P03188 22-450; P03188 624-857)	72	93
EBV/Rh (456-807) gB-YFPN (from UniProt P03188 22-450; P03188 801-857)	79	–
EBV gB-YFPN (from UniProt P03188 22-857) (natural protein)	68	–
